Experimental data taken from US20050053913A1.

Target: AD-E2F1 (GAL4-AD fused to AA 159-437 of E2F1) (yeast; human) (UniProt P04386)
Assay: cell-based or functional assay

growth on medium lacking histidine with 3AT (GAL1:HIS3 reporter): < 100 mM 3AT
Substance: DB-DP1 (GAL4-DB fused to DP1) (from UniProt P04386 1-147; Q14186 1-410)
